Results: the supplement of paper PMC7877785
± gives the uncertainty stated by the source.

Assay: self-splicing fitness, log relative to wild type (ln ratio); higher = more splicing; Tetrahymena group I intron in knt gene, E. coli kanamycin selection, DiMSum; sequences stand for … in CUCUCU…GGAGGGAAAAGUUAUCAGGCAUGCACCUGGUAGCUAGUCUUUAAACCAAUAGAUUGCAUCGGUUUAAAAGGCAAGACCGUCAAAUUGCGGGAAAGGGGUCAACAGCCGUUCAGUACCAAGUCUCAGGGGAAACUUUGAGAUGGCCUUGCAAAGGGUAUGGUAAUAAGCUGACGGACAUGGUCCUAACCACGCAGCCAAGUCCUAAGUCAACAGAUCUUCUGUUGAUAUGGAUGCAGUUCACAGACUAAAUGUCGGUCGGGGAAGAUGUAUUCUUCUCAUAAGAUAUAGUCGGACCUCUCCUUAAUGGGAGCUAGCGGAUGAAGUGAUGCAACACUGGAGCCGCUGGGAACUAAUUUGUAUGCGAAAGUAUAUUGAUUAGUUUUGGAGUACUCGUGGUCG
Procedure, shortened: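 Colonies from six replicate transformations of E. coli BL21(DE3) were pooled and amplicon-sequenced on an Illumina HiSeq 2500. The library placed an intron with all eight P1ex-region nucleotides randomised inside the knt kanamycin-resistance gene on pET-22b(+), and cells grew overnight at 37°C or 30°C on LB agar with or without 25 μg/mL kanamycin (plus 100 μg/mL carbenicillin, 50 μM IPTG, 0.2% rhamnose). Fitness is the DiMSum error-weighted combination of wild-type-normalised replicate fold changes, kanamycin versus none.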

Sequence	self-splicing fitness (ln) (30 °C)	self-splicing fitness (ln) (37 °C)
CAGUAGCAAUAUUACGUCUG	-3.23 ± 0.11	-2.6 ± 0.13
CAGUAGCAAUAUUACGUGAA	-3.97 ± 0.34	-2.15 ± 0.22
CAGUAGCAAUAUUACGUGCC	-3.68 ± 0.35	-1.93 ± 0.27
CAGUAGCAAUAUUACGUUGC	-3.47 ± 0.34	
CAGUAGCAAUAUUACGUUUU	-3.8 ± 0.24	-3.01 ± 0.24
CAUAAGCAAUAUUACGAAUC	-3.25 ± 0.25	-3.34 ± 0.37
CAUAAGCAAUAUUACGACGU	-2.51 ± 0.14	-1.27 ± 0.15
CAUAAGCAAUAUUACGAGCC	-3.21 ± 0.35	-2.41 ± 0.44
CAUAAGCAAUAUUACGAGUC	-3.2 ± 0.43	-2.68 ± 0.38
CAUAAGCAAUAUUACGCACG	-1.64 ± 0.1	-0.299 ± 0.13
CAUAAGCAAUAUUACGCAGU	-3.05 ± 0.23	-0.865 ± 0.13
CAUAAGCAAUAUUACGCCCG	-0.556 ± 0.16	-0.0931 ± 0.22
CAUAAGCAAUAUUACGCCGU	-3.29 ± 0.36	-1.15 ± 0.19
CAUAAGCAAUAUUACGCCUG	-2.54 ± 0.22	-1.39 ± 0.17
CAUAAGCAAUAUUACGCGAC	-3.45 ± 0.33	-3.11 ± 0.4
CAUAAGCAAUAUUACGCGAU	-3.46 ± 0.26	-3.08 ± 0.28
CAUAAGCAAUAUUACGCGGG	-1.6 ± 0.17	-2.18 ± 0.25
CAUAAGCAAUAUUACGCUGG	-2.08 ± 0.18	-2.03 ± 0.17
CAUAAGCAAUAUUACGGAAA		-0.782 ± 0.37
CAUAAGCAAUAUUACGGAAC		-2.26 ± 0.22
CAUAAGCAAUAUUACGGAAU	-4.25 ± 0.23	-2.43 ± 0.18
CAUAAGCAAUAUUACGGAUA	-3.62 ± 0.19	-2.87 ± 0.18
CAUAAGCAAUAUUACGGGUA	-3.36 ± 0.21	-2.64 ± 0.17
CAUAAGCAAUAUUACGGUUG	-2.47 ± 0.094	-1.59 ± 0.1
CAUAAGCAAUAUUACGUAGU	-3.82 ± 0.28	-0.576 ± 0.17

Sequence	self-splicing fitness (ln) (30 °C)	self-splicing fitness (ln) (37 °C)
CAUAAGCAAUAUUACGUCGU	-4.23 ± 0.34	-1.64 ± 0.12
CAUAAGCAAUAUUACGUGGU	-3.76 ± 0.17	-3.31 ± 0.2
CAUAAGCAAUAUUACGUGUU	-3.05 ± 0.13	-2.62 ± 0.13
CAUCAGCAAUAUUACGAGUA	-2.12 ± 0.12	-1.47 ± 0.095
CAUCAGCAAUAUUACGAUCU	-0.778 ± 0.06	-0.771 ± 0.087
CAUCAGCAAUAUUACGCACG	-0.443 ± 0.086	0.189 ± 0.11
CAUCAGCAAUAUUACGCAUU	-1.36 ± 0.079	-0.544 ± 0.1
CAUCAGCAAUAUUACGGCGG	-0.364 ± 0.071	0.3 ± 0.12
CAUCAGCAAUAUUACGGGGU	-4.39 ± 0.25	-2.11 ± 0.25
CAUCAGCAAUAUUACGGGUA	-0.63 ± 0.07	-0.0764 ± 0.079
CAUCAGCAAUAUUACGGUAA	-2.64 ± 0.14	-1.09 ± 0.086
CAUCAGCAAUAUUACGGUCA	-1.11 ± 0.076	-0.81 ± 0.098
CAUCAGCAAUAUUACGGUGA	-1.63 ± 0.12	-1.4 ± 0.12
CAUCAGCAAUAUUACGGUGG	-0.952 ± 0.045	-0.393 ± 0.068
CAUCAGCAAUAUUACGGUUG	-2.29 ± 0.072	-0.804 ± 0.079
CAUCAGCAAUAUUACGUGGU	-3.2 ± 0.096	-2.07 ± 0.12
CAUCAGCAAUAUUACGUUCA	-2.66 ± 0.16	-1.77 ± 0.15
CAUGAGCAAUAUUACGACAU	-3.739 ± 0.028	-2.9 ± 0.043
CAUGAGCAAUAUUACGACUA	-2.06 ± 0.27	
CAUGAGCAAUAUUACGAGGA	-2.72 ± 0.23	-2.62 ± 0.26
CAUGAGCAAUAUUACGAGGC	-2.4 ± 0.2	-2.34 ± 0.26
CAUGAGCAAUAUUACGCAAU	-3.1 ± 0.38	
CAUGAGCAAUAUUACGCGUA	-2.65 ± 0.24	-2.45 ± 0.25
CAUGAGCAAUAUUACGCUAC		-2.29 ± 0.49
CAUGAGCAAUAUUACGCUCG	-2.72 ± 0.17	-2.68 ± 0.4
